This note sets out measurements from PMC7114298.

In the test the target is MERS-CoV PLpro-[change] (wild type) (MERS-CoV) (UniProt K9N7C7).

Take “Ub-AMC (from UniProt P0CG48 1-76) (natural protein)”: the Km of Ub-AMC hydrolysis (steady-state kinetics, 25 °C) was 16.6 µM.
